Measured values as given in publication PMC4995138.

Target: Human pyruvate kinase isoform M2 (PKM2), wild type (human) (UniProt P14618)
Test: SEC

Chain of Human pyruvate kinase isoform M2 (PKM2), wild type, P14618 1-531 (enzyme; other documents disagree on this pair) (P14618 whole entry, canonical isoform): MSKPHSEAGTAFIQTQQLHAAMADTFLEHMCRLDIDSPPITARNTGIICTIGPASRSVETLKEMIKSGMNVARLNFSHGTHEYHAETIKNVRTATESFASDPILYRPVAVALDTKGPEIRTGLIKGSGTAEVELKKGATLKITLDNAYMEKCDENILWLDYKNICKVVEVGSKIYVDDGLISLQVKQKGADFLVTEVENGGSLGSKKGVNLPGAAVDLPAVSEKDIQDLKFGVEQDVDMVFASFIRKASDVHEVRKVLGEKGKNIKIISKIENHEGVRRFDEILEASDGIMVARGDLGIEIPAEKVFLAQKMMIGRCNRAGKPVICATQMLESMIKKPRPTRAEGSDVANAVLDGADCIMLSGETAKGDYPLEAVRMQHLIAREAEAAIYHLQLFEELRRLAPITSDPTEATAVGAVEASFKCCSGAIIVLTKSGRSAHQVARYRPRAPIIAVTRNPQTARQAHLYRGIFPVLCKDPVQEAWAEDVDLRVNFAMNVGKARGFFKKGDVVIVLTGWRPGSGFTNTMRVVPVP

stoichiometry N: 2
Substance: Human pyruvate kinase isoform M2 (PKM2), wild type, P14618 1-531 (enzyme; other documents disagree on this pair)
